In patent publication US20250320312A1 (OXITOPE PHARMA B V, published 2025) one finds OD450 data, which are given here for 19 molecules.

Changes are numbered by the printed parent chain.

The labels stand for the following.
T1: Peptide 4: Biotin-AGGGGSGGGGSGGGGSAAA-Tyr-acid (N-terminal biotin; C-terminal acid)
T1 construct: Control peptide without PC
T1 peptide: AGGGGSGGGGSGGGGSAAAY

T2: Peptide 8: Biotin-AEAAAKEAAAKEAAAKEAAAKAAA-Tyr-acid (N-terminal biotin; C-terminal acid)
T2 construct: Control peptide without PC
T2 peptide: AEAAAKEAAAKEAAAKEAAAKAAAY

B1: PcOxP_DB03_F05 (scFv, V domains shown)
VH: EVQLLESGGGLVQPGGSLRLSCAASGFTFSDYYMEWVRQAPGKGLEWVAASRNKGNDYTTAYADSVKGRFTISRDNSKNTLYLQMNSLRAEDTAVYYCARDYFGSSYWYFDVWGQGTLVTVSS
VL: DIVMTQSPDSLAVSLGERATINCTASQSVYSSKHNKHYLAWYQQKPGQPPKLLIYGASNPYIGVPDRFSGSGSGTDFTLTISSLQAEDVAVYYCAQFYSYPLTFGGGTKVEIK
notes: scFv in periplasmic extract
B2: PcOxP_DB03_G01 (scFv, V domains shown)
VH: B1 VH with Y32G, G55A, D57F, A61E, Y102H, F103Y
VL: B1 VL with Q27E, V29L, N35K, K36V, P60R, S99N
notes: scFv in periplasmic extract
B3: PcOxP_DB04_B12 (scFv, V domains shown)
VH: B1 VH with G55A, A61E, F103Y
VL: B1 VL with Q27E, V29L, N35K, K36V, P60R, Q96A
notes: scFv in periplasmic extract
B4: PcOxP_DB04_B10 (scFv, V domains shown)
VH: B1 VH with F29D, Y32F, G55A, D57G, A61E, F103Y
VL: B1 VL with Q27E, V29L, N35K, K36V, P60R, Y61P, A95G
notes: scFv in periplasmic extract
B5: PcOxP_DB03_G12 (scFv, V domains shown)
VH: B1 VH with G55Y, A61E, F103Y
VL: B1 VL with T24K, A25S, Q27E, N35K, P60R
notes: scFv in periplasmic extract
B6: PcOxP_DB04_B07 (scFv, V domains shown)
VH: B1 VH with F27P, Y32F, G55A, D57G, A61E, F103Y
VL: B1 VL with Q27E, V29L, N35K, K36V, P60R
notes: scFv in periplasmic extract
B7: PcOxP_DB03_F11 (scFv, V domains shown)
VH: B1 VH with G55A, D57S, F103Y
VL: B1 VL with A25S, V29L, Y30L, S31Y, K33S, H34N, N35K, P60R, S99E
notes: scFv in periplasmic extract
B8: PcOxP_DB04_A05 (scFv, V domains shown)
VH: B1 VH with Y32F, M34I, G55A, A61E, F103Y
VL: B1 VL with Q27E, V29L, N35K, K36V, P60R, Y61E
notes: scFv in periplasmic extract
B9: PcOxP_DB03_F07 (scFv, V domains shown)
VH: B1 VH with F29Q, Y32F, D57S, F103Y
VL: B1 VL with Q27E, V29L, S32G, N35K, K36V, P60R
notes: scFv in periplasmic extract
B10: PcOxP_DB04_C09 (scFv, V domains shown)
VH: B1 VH with D31S, G55A, A61E, F103Y, G104L
VL: B1 VL with Q27E, V29L, S32P, N35K, K36V, S58E, P60R
notes: scFv in periplasmic extract
B11: PcOxP_DB03_G09 (scFv, V domains shown)
VH: B1 VH with T28S, Y32F, G55W, A61E, F103Y
VL: B1 VL with Q27E, V29L, N35K, K36V, P60R, Q96S
notes: scFv in periplasmic extract
B12: PcOxP_DB04_C10 (scFv, V domains shown)
VH: B1 VH with Y32G, S51I, G55A, A61E, F103Y, S106H
VL: B1 VL with Q27E, V29L, N35K, K36V, P60R
notes: scFv in periplasmic extract
B13: PcOxP_DB04_A11 (scFv, V domains shown)
VH: B1 VH with G55A, D57T, A61E, F103Y
VL: B1 VL with Q27E, Y30L, N35K, H37N, N59T, P60R
notes: scFv in periplasmic extract
B14: PcOxP_DB04_B11 (scFv, V domains shown)
VH: B1 VH with F27D, Y32F, N53W, G55A, A61E, F103Y
VL: B1 VL with Q27E, V29L, N35K, K36V, P60R
notes: scFv in periplasmic extract
B15: PcOxP_DB03_G11 (scFv, V domains shown)
VH: B1 VH with D31S, G55A, A61E, F103Y
VL: B1 VL with T24K, A25S, Y30L, N35K, H37N, P60R
notes: scFv in periplasmic extract
B16: PcOxP_DB03_H02 (scFv, V domains shown)
VH: B1 VH with F29E, Y32F, G55Y, A61E, F103Y
VL: B1 VL with Q27E, V29L, N35K, K36V, S58Q, P60R
notes: scFv in periplasmic extract
B17: PcOxP_DB03_H10 (scFv, V domains shown)
VH: B1 VH with S30D, Y32F, K54E, G55A, A61E, F103Y
VL: B1 VL with Q27E, V29L, N35K, K36V, S58G, P60R, S99H
notes: scFv in periplasmic extract
B18: PcOxP_DB04_B01 (scFv, V domains shown)
VH: B1 VH with F29Q, Y32F, G55A, A61E, F103Y, S105E
VL: B1 VL with Q27V, V29L, N35K, K36V, A57P, P60R
notes: scFv in periplasmic extract
B19: PcOxP_DB04_A04 (scFv, V domains shown)
VH: B1 VH with Y32F, G55W, A61E, F103Y
VL: B1 VL with H34N, N35K, P60R, S99R
notes: scFv in periplasmic extract

In one assay the target is BSA (UniProt P02769). The assay is described as follows: scFv ELISA. On the technique in general: ELISA stands for enzyme-linked immunosorbent assay.
Sequence of BSA (P02769 25-607 limits assumed): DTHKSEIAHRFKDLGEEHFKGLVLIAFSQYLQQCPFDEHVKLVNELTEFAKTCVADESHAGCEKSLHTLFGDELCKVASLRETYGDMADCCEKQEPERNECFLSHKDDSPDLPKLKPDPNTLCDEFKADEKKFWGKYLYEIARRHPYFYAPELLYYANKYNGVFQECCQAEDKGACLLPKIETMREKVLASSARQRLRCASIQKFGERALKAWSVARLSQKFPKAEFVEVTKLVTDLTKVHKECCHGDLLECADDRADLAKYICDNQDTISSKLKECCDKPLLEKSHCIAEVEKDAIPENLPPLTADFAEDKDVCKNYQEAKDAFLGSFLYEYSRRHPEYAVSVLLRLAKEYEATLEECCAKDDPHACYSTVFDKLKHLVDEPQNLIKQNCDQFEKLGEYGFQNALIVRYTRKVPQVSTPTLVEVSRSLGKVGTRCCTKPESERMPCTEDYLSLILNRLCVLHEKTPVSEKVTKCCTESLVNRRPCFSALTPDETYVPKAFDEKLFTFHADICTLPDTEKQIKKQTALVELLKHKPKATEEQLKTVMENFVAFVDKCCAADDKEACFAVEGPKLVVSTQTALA
Take B1: the OD450 amounted to 0.06 OD450.
With B2, the OD450 was found to be 0.09 OD450.
Same read-out and setting: to B3 belongs 0.09 OD450.
Same read-out and setting: to B4 belongs 0.06 OD450; to B5, 0.08 OD450.
Still for that read-out and setting: to B6 belongs 0.09 OD450.
With B7, the OD450 was 0.12 OD450.
On the same count and under the same terms, to B8 belongs 0.06 OD450.
The same measure, in the same setting: in the case of B9 it was 0.08 OD450; in that of B10, 0.11 OD450; in that of B11, 0.07 OD450.
Still for that read-out and setting: in the case of B12 it was 0.08 OD450; in that of B13, 0.1 OD450; in that of B14, 0.08 OD450.
Consider B15, for which the OD450 amounted to 0.1 OD450.
On the same count and under the same terms, in the case of B16 it was 0.05 OD450; in that of B17, 0.05 OD450; in that of B18, 0.06 OD450.
With B19, the OD450 was determined as 0.11 OD450.

The target of the next assay is Peptide 1: Biotin-…-[Tyr(PC)]-acid. The assay is described as follows: scFv ELISA.
Turning to B1, the OD450 was 0.73 OD450.
The same measure, in the same setting: in the case of B2 it was 0.66 OD450.
B3 yielded an OD450 of 0.13 OD450.
The same measure, in the same setting: to B4 belongs 1.05 OD450.
For B5, the OD450 worked out at 1.57 OD450.
Same read-out and setting: in the case of B6 it was 0.93 OD450; in that of B7, 1.47 OD450.
The same measure, in the same setting: in the case of B8 it was 0.72 OD450; in that of B9, 0.53 OD450.
On the same count and under the same terms, in the case of B10 it was 0.55 OD450; in that of B11, 0.74 OD450.
As for B12, the OD450 stood at 0.54 OD450.
On the same count and under the same terms, to B13 belongs 0.64 OD450; to B14, 0.26 OD450.
On the same count and under the same terms, to B15 belongs 0.26 OD450; to B16, 1.07 OD450; to B17, 0.24 OD450.
Take B18: the OD450 is 0.45 OD450.
Still for that read-out and setting: in the case of B19 it was 1.09 OD450.

Another assay addresses Peptide 5: Biotin-…-[Tyr(PC)]-acid. Put plainly: scFv ELISA.
Regarding B1, the OD450 is 1.04 OD450.
On the same count and under the same terms, to B2 belongs 1.19 OD450.
Still for that read-out and setting: to B3 belongs 0.34 OD450.
Still for that read-out and setting: to B4 belongs 1.56 OD450; to B5, 1.91 OD450.
As to B6, the OD450 amounted to 1.33 OD450.
B7 yielded an OD450 of 1.43 OD450.
Still for that read-out and setting: to B8 belongs 1.29 OD450; to B9, 1.19 OD450.
Turning to B10, the OD450 worked out at 1.21 OD450.
Same read-out and setting: in the case of B11 it was 1.07 OD450.
Still for that read-out and setting: to B12 belongs 1.03 OD450; to B13, 1.6 OD450.
The same measure, in the same setting: to B14 belongs 0.31 OD450.
Turning to B15, the OD450 worked out at 0.72 OD450.
Same read-out and setting: in the case of B16 it was 1.69 OD450; in that of B17, 0.39 OD450; in that of B18, 0.78 OD450.
The same measure, in the same setting: in the case of B19 it was 1.9 OD450.

Another assay concerns the target T1, Peptide 4: …. The assay is described as follows: scFv ELISA. The gist of the method: (§1)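 Bound scFv was read as OD450 after HRP–anti-V5 detection, TMB development and HCl stop. PPE with BSA was incubated 1 h at RT on BSA-blocked wells coated overnight at 4° C. with peptide, or on streptavidin wells loaded 1 h with biotinylated PC-peptides at 1 μg/mL.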
B1 showed an OD450 of 0.05 OD450.
On the same count and under the same terms, to B2 belongs 0.05 OD450; to B3, 0.04 OD450.
Same read-out and setting: to B4 belongs 0.05 OD450; to B5, 0.06 OD450; to B6, 0.06 OD450.
Still for that read-out and setting: in the case of B7 it was 0.06 OD450; in that of B8, 0.04 OD450.
In turn, B9 gave an OD450 of 0.05 OD450.
Still for that read-out and setting: to B10 belongs 0.07 OD450; to B11, 0.05 OD450; to B12, 0.06 OD450.
B13 gave an OD450 of 0.07 OD450.
Same read-out and setting: in the case of B14 it was 0.05 OD450; in that of B15, 0.05 OD450.
For B16, the OD450 came to 0.05 OD450.
The same measure, in the same setting: in the case of B17 it was 0.04 OD450; in that of B18, 0.05 OD450.
For the molecule B19, the OD450 worked out at 0.08 OD450.

Another assay addresses T2, Peptide 8: …. The assay is described as follows: scFv ELISA. The gist of the method:
as §1
Consider B1, for which the OD450 worked out at 0.04 OD450.
Same read-out and setting: in the case of B2 it was 0.05 OD450.
Same read-out and setting: in the case of B3 it was 0.04 OD450; in that of B4, 0.04 OD450.
Still for that read-out and setting: to B5 belongs 0.05 OD450.
B6 yielded an OD450 of 0.05 OD450.
On the same count and under the same terms, in the case of B7 it was 0.06 OD450; in that of B8, 0.04 OD450.
On the same count and under the same terms, in the case of B9 it was 0.05 OD450; in that of B10, 0.06 OD450.
Still for that read-out and setting: to B11 belongs 0.05 OD450; to B12, 0.05 OD450.
Consider B13, for which the OD450 was 0.08 OD450.
The same measure, in the same setting: in the case of B14 it was 0.05 OD450; in that of B15, 0.05 OD450.
Same read-out and setting: in the case of B16 it was 0.04 OD450; in that of B17, 0.07 OD450.
On the same count and under the same terms, in the case of B18 it was 0.05 OD450; in that of B19, 0.08 OD450.
